Reference: US20200223889A1 (Novo Nordisk, published 2020)
Positions of bridges follow the written chain, without caps; N, C: chain ends. Non-standard residues stand in square brackets, D forms with d. Cit = NC(=O)NCCC[C@H](N)C(=O)O; Api = NC1(C(=O)O)CCNCC1; Aib = CC(C)(N)C(=O)O

How the values were obtained:
[1] = biological target: T1, human melanocortin 4 receptor (human, UniProt P32245 1-332); test: competition with 125-NDP-α-MSH, BHK human MC4R membranes
T1 construct: whole, on cells; cAMP assay on whole BHK cells; also called MC4R; human MC4 receptor
T1 sequence (P32245 whole entry): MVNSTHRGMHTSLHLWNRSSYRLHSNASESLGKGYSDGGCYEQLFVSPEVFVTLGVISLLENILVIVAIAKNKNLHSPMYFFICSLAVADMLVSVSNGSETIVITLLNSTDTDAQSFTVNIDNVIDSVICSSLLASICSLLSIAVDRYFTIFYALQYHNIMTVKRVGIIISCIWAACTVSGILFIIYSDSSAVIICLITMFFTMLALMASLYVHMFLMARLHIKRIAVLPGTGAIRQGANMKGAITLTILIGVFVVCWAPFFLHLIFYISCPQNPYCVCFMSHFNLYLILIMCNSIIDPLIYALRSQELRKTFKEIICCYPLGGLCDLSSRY
Procedure, shortened: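 Competition binding used membranes from BHK cells stably expressing human MC4R with ¹²⁵I-NDP-α-MSH (apx. […] final), compound at 1 μM–0.001 nM. Incubation was 2 h at 25 °C in HEPES pH 7.0 buffer with CaCl₂, MgSO₄, EGTA, Tween 20 and 0.1% HSA or ovalbumin. Filter-bound radioactivity was fitted by non-linear regression.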

[2] = biological target: T1, human melanocortin 4 receptor; test: cell-based or functional assay
[3] = biological target: human melanocortin 1 receptor (human, UniProt Q01726 1-317); test: cell-based or functional assay
human melanocortin 1 receptor, sequence (Q01726 whole entry): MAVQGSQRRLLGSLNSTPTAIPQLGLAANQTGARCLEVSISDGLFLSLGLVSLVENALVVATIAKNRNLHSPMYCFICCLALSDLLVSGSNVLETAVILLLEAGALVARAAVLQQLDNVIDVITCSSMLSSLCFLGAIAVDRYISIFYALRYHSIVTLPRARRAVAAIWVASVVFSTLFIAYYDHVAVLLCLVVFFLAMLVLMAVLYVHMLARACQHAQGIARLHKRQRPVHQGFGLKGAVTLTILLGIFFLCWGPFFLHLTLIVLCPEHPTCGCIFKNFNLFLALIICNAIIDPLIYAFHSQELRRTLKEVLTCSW

Binder	Ki [1]	MC4R cAMP EC50 [2]	MC1R cAMP EC50 [3]
CAHFXWCAHFXW (D-Phe 4, 10; AGP 5, 11; disulphide Cys1-Cys7; head-to-tail amide Cys1-Trp12, also called c[c[Cys-Ala-His-D-Phe-AGP-Trp-Cys]-Ala-His-D-Phe-AGP-Trp]) [Chem. 42]	10000 nM	> 1000 nM	> 100 nM
cyclo(C[Aib]H[dF]KWC[Aib]H[dF]KW) (disulfide 1-7; SMILES CC1(C)NC(=O)[C@@H]2CSSC[C@H](NC(=O)[C@H](Cc3c[nH]c4ccccc34)NC(=O)[C@H](CCCCN)NC(=O)[C@@H](Cc3ccccc3)NC(=O)[C@H](Cc3c[nH]cn3)NC1=O)C(=O)NC(C)(C)C(=O)N[C@@H](Cc1c[nH]cn1)C(=O)N[C@H](Cc1ccccc1)C(=O)N[C@@H](CCCCN)C(=O)N[C@@H](Cc1c[nH]c3ccccc13)C(=O)N2, also called c[c[Cys-Aib-His-D-Phe-Lys-Trp-Cys]-Aib-His-D-Phe-Lys-Trp]) [Chem. 40]	0.31 nM	0.29 nM	11.1 nM
cyclo(CAH[dF][Cit]WCAEEEW) (disulfide 1-7; SMILES C[C@@H]1NC(=O)[C@@H]2CSSC[C@H](NC(=O)[C@H](Cc3c[nH]c4ccccc34)NC(=O)[C@H](CCCNC(N)=O)NC(=O)[C@@H](Cc3ccccc3)NC(=O)[C@H](Cc3c[nH]cn3)NC1=O)C(=O)N[C@@H](C)C(=O)N[C@@H](CCC(=O)O)C(=O)N[C@@H](CCC(=O)O)C(=O)N[C@@H](CCC(=O)O)C(=O)N[C@@H](Cc1c[nH]c3ccccc13)C(=O)N2, also called c[c[Cys-Ala-His-D-Phe-Cit-Trp-Cys]-Ala-Glu-Glu-Glu-Trp]) [Chem. 45]	1000 nM	45.7 nM	> 100 nM
cyclo(C[Api]H[dF]RWC[Api]H[dF]RW) (disulfide 1-7; SMILES N=C(N)NCCC[C@@H]1NC(=O)[C@@H](Cc2ccccc2)NC(=O)[C@H](Cc2c[nH]cn2)NC(=O)C2(CCNCC2)NC(=O)[C@@H]2CSSC[C@H](NC(=O)[C@H](Cc3c[nH]c4ccccc34)NC1=O)C(=O)NC1(CCNCC1)C(=O)N[C@@H](Cc1c[nH]cn1)C(=O)N[C@H](Cc1ccccc1)C(=O)N[C@@H](CCCNC(=N)N)C(=O)N[C@@H](Cc1c[nH]c3ccccc13)C(=O)N2, also called c[c[Cys-ACP-His-D-Phe-Arg-Trp-Cys]-ACP-His-D-Phe-Arg-Trp]) [Chem. 47]	0.72 nM	0.12 nM	2.79 nM
cyclo(CAH[dF][Cit]WCAKKKW) (disulfide 1-7; SMILES C[C@@H]1NC(=O)[C@@H]2CSSC[C@H](NC(=O)[C@H](Cc3c[nH]c4ccccc34)NC(=O)[C@H](CCCNC(N)=O)NC(=O)[C@@H](Cc3ccccc3)NC(=O)[C@H](Cc3c[nH]cn3)NC1=O)C(=O)N[C@@H](C)C(=O)N[C@@H](CCCCN)C(=O)N[C@@H](CCCCN)C(=O)N[C@@H](CCCCN)C(=O)N[C@@H](Cc1c[nH]c3ccccc13)C(=O)N2, also called c[c[Cys-Ala-His-D-Phe-Cit-Trp-Cys]-Ala-Lys-Lys-Lys-Trp]) [Chem. 48]	0.15 nM	0.06 nM	9.14 nM
cyclo(CH[dF]RWCH[dF]RW) (disulfide 1-6; SMILES N=C(N)NCCC[C@@H]1NC(=O)[C@@H](Cc2ccccc2)NC(=O)[C@H](Cc2c[nH]cn2)NC(=O)[C@@H]2CSSC[C@H](NC(=O)[C@H](Cc3c[nH]c4ccccc34)NC1=O)C(=O)N[C@@H](Cc1c[nH]cn1)C(=O)N[C@H](Cc1ccccc1)C(=O)N[C@@H](CCCNC(=N)N)C(=O)N[C@@H](Cc1c[nH]c3ccccc13)C(=O)N2, also called c[c[Cys-His-D-Phe-Arg-Trp-Cys]-His-D-Phe-Arg-Trp]) [Chem. 49]	3.92 nM	1.28 nM	> 5.5 nM
